Targets include RamR I141T (Klebsiella pneumoniae, UniProt A0A0H3GJQ8 1-194, I141T); RamR WT (Klebsiella pneumoniae, UniProt A0A0H3GJQ8 1-194); RamR L58P (Klebsiella pneumoniae, UniProt A0A0H3GJQ8 1-194, L58P).
Common to all, as to assay: EMSA; 2 uM protein, 200 nM DNA
Holding throughout (conditions): protein: recombinant; tags: N-terminal His6; chain copies: 2; label: none (NA-Green stain); blunt

The values below come from article PMC12806483, “Dual role of ramR mutation in enhancing immune activation and elevating eravacycline resistance in Klebsiella pneumoniae”.

B1: ramA promoter probe (ramA P-F/ramA P-R) (dsDNA)
DNA 1: AAAACGAATCGTCCTGCATGCCCAGGCAGCACCGCGCGAGCGCGCAGGTCGTCGGCAGCCTGAGCCGTTTCATCCGGCATCATGTGGATATATTTCCAGTC
DNA 2: GACTGGAAATATATCCACATGATGCCGGATGAAACGGCTCAGGCTGCCGACGACCTGCGCGCTCGCGCGGTGCTGCCTGGGCATGCAGGACGATTCGTTTT
As to B1, the binding result is recorded as “binds” in the data set with RamR I141T, “binds” in the data set with RamR WT and “no binding” with RamR L58P.
